PMC7708447, “Ultrasensitive antibody-aptamer plasmonic biosensor for malaria biomarker detection in whole blood”

Experiments:
[1] = target: Plasmodium vivax lactate dehydrogenase (PvLDH) (Plasmodium vivax, UniProt Q4PRK9 1-316); experiment: antibody-aptamer sandwich plasmon-enhanced fluorescence; conditions: protein: recombinant; chain copies: 4
[2] = target: Plasmodium falciparum lactate dehydrogenase (PfLDH) (Plasmodium falciparum, UniProt Q76NM3 1-316); experiment: antibody-aptamer sandwich plasmon-enhanced fluorescence; PfLDH captured by anti-PLDH on AuNP array; spiked human blood; 0.1 uM aptamer; sandwich LOD 18 fM (not a Kd); association time constant 45 +/- 15 min; Aptamer step: PBS (10 mM NaCl, 10 mM NaH2PO4, 10 mM Na2HPO4, 1 mM MgCl2, pH 7.1), 0.1 uM Cy5-aptamer, 2 h in the dark; temperature not stated; analyte spiked in human blood; conditions: protein: recombinant; chain copies: 4; label: 5'-Cy5

B1: malaria 2008s aptamer (ssDNA)
DNA: CTGGGCGGTAGAACCATAGTGACCCAGCCGTCTAC
Does B1 bind [1]?
Result: no binding

Does B1 bind [2]?
Result: binds
